Results on 19 variants are retold here after the RNAGym collection of RNA variant scans (doi:10.1073/pnas.2313332121).

Fewer inactive variants are shown than the library holds.

The labels stand for the following.
B1: TPR 5TU (parent)
chain: GGAUCUUCUCGAUCUAACAAAAAAGACAAAUCUGCCACAAAGCUUGAGAGCAUCUUCGGAUGCAGAGGCGGCAGCCUUCGGUGGCGCGAUAGCGCCAACGUUCUCAACUAUGACACGCAAAACGCGUGCUCCGUUGAAUGGAGUUUAUCAUG

Variants of B1 are the subject of the series. As to the kind of experiment: polymerase ribozyme fitness, log enrichment relative to wild type (log ratio); higher = more active; in vitro selection for triplet polymerase activity. In outline:
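Fitness compares each genotype's enrichment to that of the wild type on a logarithmic scale, averaging replicates with inverse-variance weights. The logarithm is base 2. Enrichment came from Illumina sequencing of input and output libraries after one triplicate round of in vitro selection, which included frozen incubation at −7 °C, of PCR-built, transcribed mutant libraries of each subunit of a heterodimeric triplet polymerase ribozyme. Only genotypes with ≥10 input reads and ≥1 read per output were kept.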
Take GGAUCUUUUCGAUCUAACAAAAAAGACAAAUCUGCCACAAAGCUUGAGAGCAUCUUCGGAUGCAGAGGCGGCAGCCUUCGGUGACGCGAUAGCGCCAACGUUCUCAACUAUGACACGCAAAACGCGUGCUCCGUUGAAUGGAGUUUAUCAUG: the “polymerase ribozyme fitness (log ratio)” value was -2.87.

As for GGAUCUUCUCGAUCUAACAAAAAAGACAAAACUGCCACAAAGCUUGAGAGCAUCUUCGGAUGCAGAGGCGGCAGCCUUCGGUGGCGCGAUAGCGCCAACUUUCUCAACUAUGACACGCAAAACGCGUGCUCCGUUGAAUGGAGUUUAUCAUG, the “polymerase ribozyme fitness (log ratio)” value was ≤ -4.2.

On to GGAUCUUCUCGAUCUAACAAAAAAGACAAAUCUGCCACAAAGUUUGAGAGCAUUUUCGGAUGCAGAGGCGGCAGCCUUCGGUGGCGCGAUAGCGCCAACGUUCUCAACUAUGACACGCAAAACGCGUGCUCCGUUGAAUUGAGUUUAUCAUG, for which the “polymerase ribozyme fitness (log ratio)” value is ≤ -4.2.

In the case of GGAUCUUCUCGAUCUAACAAAAAAGACAAAUCUGCCACAUAGCUUGAGAGCAUCUUAGGAUGCAGAGGCGGCUGCCUUCGGUGGCGCGAUAGCGUCAACGUUCUCAACUAUGACACGCAAAACGCGUGCUCCGUGGAAUGGAGUUUAUGAUG, the “polymerase ribozyme fitness (log ratio)” value is ≤ -4.2.

As for GGAUCUUCUCGAUCUAACACAAAAGACAAAUCUGCCACAAAGCUUGAGAGCAUCUUCGGAUGCAGAGGCGGCAGCCUUCGUUGGCGCGAUAGCUCCAACGUUCUCAACUAUGACACGCAUAACGCGUGCUCCGUUGAAUGGAGUUUAUCACG, the “polymerase ribozyme fitness (log ratio)” value was -4.13.

GGAUCUUCUCGAUCUAACAAAAAAGACAAAUCUGCCACAAAGCUUGAGAGCACCUUUGGGUGCAGAGGAGGCAGCCUUCGGUGGCGCGAUAGCGCCUACGUUCUCAACUAUGACACGCAAAACGCGUGCUCCGUUGAAUGAAGUUCAUCAUG: the “polymerase ribozyme fitness (log ratio)” value is -0.526.

For the variant GGAUCUUCUCGAUCUAACAAAAAAGACAAAUCGGCCACAAAGGUUGAGAGCAUCUUCGGAUGCAGGGGCGGCAGCCUUCGGUGGCGCGAUAGAGUCAACGUUCUCAACUAUGACACGGAAAACGCGUGCUCCGUUGAAUGGAGUUUAUCAUG, the “polymerase ribozyme fitness (log ratio)” value is ≤ -4.2.

For GGAUUUUCUCGAUCUAACAAAAAAGACAAAUCUGCCACAAAGCUUGAGAGCAUCUUCGGAUGCAGAGGCGGCAGCCUUCGGUGGCGCGAUAGCGCCAACGUUCUCAACUAUGACACGCAAAACGCGUGCUCCGUUGAAUGGACUUUAUCAUG, the “polymerase ribozyme fitness (log ratio)” value was -1.95.

For GGGUCUUCUCGAUCUAACAAAAAAGACAAAUCUGCCACCAAGCUUGAGAGCAUCUUCGGAUGCAGAGGCGGCAGCCUUCGGUGGCGCGAUAGCGCCAACGUUCUCAACUAUGACACGCAAAACGCGUGCUCCGUUGAAUGGAGUUUAUCAUG, the “polymerase ribozyme fitness (log ratio)” value is -3.26.

In the case of GGAUCUUCUCGAGCUAACAAAAAAGACAAAUCUGCCACAAAGCUUGAGAGCAUCUUCGAAUGCAGAGGCGGCAGCCUUCGGUGGCGCGAUAGCGCCAACGUUCUCAACUAUGACACGCAAAACGCGUGCUCCGUUGAAUGGAGUUUAUCAUG, the “polymerase ribozyme fitness (log ratio)” value is -1.2.

Take GGAUCUUCUCGAUCUAACAAAAAAGACAAAUCUGCCACAAAGCUUGAGAGCAUCUUCGGAUGCGGAGGCGGCAGCCUUCGGUGGCACGAUAGCGCCAACGUUCUCAACUAUGACACGCAAAACGCGUGCUCCGUUGAAUGGAGUUUAUCAUG: the “polymerase ribozyme fitness (log ratio)” value is -4.08.

In the case of GGAUCUUCUCGAUCUAACAAAAAAGACAAAUCUGCCACAAAGCUUGAGAACAUCUUCGGAUGCAGGGGCGGCAGCCUUCGGUGGAGCGAUAGCGCCAACGUUCUCGACUAUGACACGCAAAACGCGUGCUCCGUUGAAUCGAGUUUAUCAUG, the “polymerase ribozyme fitness (log ratio)” value is ≤ -4.2.

On to GGAUCUUCUCGAUCUAACAAAAAAGACAAAUCUGCCACAAAGCUUGAGAGAAUCUUCGGAUGCAAAGGCGGCAGCCUUCGUUGGCGCGAUAGCGCGAACGUUCUCUACUAUGACACGCAAAACGCGUGCUCCGUUUAAUGGAGUUUAUCAUG, for which the “polymerase ribozyme fitness (log ratio)” value is ≤ -4.2.

Regarding GGAUCUUCUCGAUCUAACAAAAAAGACAAAUCUGCCACAAAGCUUGAGAGCAUUUUCGGAUGCAGAGGCGGCAGCCUUCGGUGGCGCGAUAGCGCCAAAGUUCUCAACUAUGACACGCAAAACGCGUGCUCCGUUGAAUGGAGUUGAUCUUG, the “polymerase ribozyme fitness (log ratio)” value is -3.6.

As for GGAUCUUCUCGAUCUAACAAAAAAGACAAAACUGCCACAAAGCUUGAGAGCAUCUUCGGAUGCAGAGGCGGCAGCCUUCGGUGGCGCGAUAGCGCCAACGUUCUCAACUAUGACACGCAGAACGCGUGCUCCGUUGAAUGGAGUUUAUCAUG, the “polymerase ribozyme fitness (log ratio)” value amounted to 0.523.

Turning to GGAUCUUCUCGAUCUAACAAAAAAGACAAAUCUGCCACAAAGCUUGAGAGCUUCUUCUGAUGCAGAGGCGGCAGCCUUCGGUGGCGCGACAGCGCCAACGUUCUCAACUAUGACACGUAAAACGCCUGCUCCGUUGACUGGAGUUUAUCAUG, the “polymerase ribozyme fitness (log ratio)” value is ≤ -4.2.

On to GGAUCUUCUCGAUCUAACAAAAAAGACAAAUCUGUCACAAAGCUUGAGAGCAUCUUCGGAUGCAGAGGCGGCAGCCUUCGGUGGCGCGAUAGUGCCAACGUUCUCAACUAUGACACGCAAAACGCGUGCUCCGUUGAAUGGAGUUUAUCAUG, for which the “polymerase ribozyme fitness (log ratio)” value is -1.74.

On to GGAUCUUCUCGAUCUAACAAAAAAGACAAAUCUGCCACAAAGCUUGAAAACAUCUUCCGAUGCAGAGGCGGCAGCCUUCGGUGGCGGGAUAGCGCCAACGUUCUCAACUAUGACACGCAAAACGCGUGCUCCGUUGAAUGGAGUUUAUCAUG, for which the “polymerase ribozyme fitness (log ratio)” value is ≤ -4.2.

As to GGAUCUUCUCGAUCUAACAAAAAAGUCAAAUCUGCCACAAAGCUUGAGAGCAUCGUCGGAUGCAGAGGCGGCAGCCUUCGGUGGCGCGAUAGCGCCAACGUUCUCAACUAUGACACGCAAAACGCGUGCUCCGUUGAAUGGAGUUUAUCAUG, the “polymerase ribozyme fitness (log ratio)” value was -1.36.
